Measurements taken from paper PMC6778195 (2019).

Target: J1a DBLβ domain (wild type) (Plasmodium falciparum)
Test: SPR

B1: ICAM-1^D1D5-Fc (Fc fusion)
chain: QTSVSPSKVILPRGGSVLVTCSTSCDQPKLLGIETPLPKKELLLPGNNRKVYELSNVQEDSQPMCYSNCPDGQSTAKTFLTVYWTPERVELAPLPSWQPVGKNLTLRCQVEGGAPRANLTVVLLRGEKELKREPAVGEPAEVTTTVLVRRDHHGANFSCRTELDLRPQGLELFENTSAPYQLQTFVLPATPPQLVSPRVLEVDTQGTVVCSLDGLFPVSEAQVHLALGDQRLNPTVTYGNDSFSAKASVSVTAEDEGTQRLTCAVILGNQSQETLQTVTIYSFPAPNVILTKPEVSEGTEVTVKCEAHPRAKVTLNGVPAQPLGPRAQLLLKATPEDNGRSFSCSATLEVAGQLIHKNQTRELRVLYGPRLDERDCPGNWTWPENSQQTPMCQAWGNPLPELKCLKDGTFPLPIGESVTVTRDLEGTYLCRARSTQGEVTRKVTVNVLSPRYE
  Kd: 262 nM
